B1: Mothers against decapentaplegic homolog 4 (Homo sapiens), Q13485 (parent)
chain: MDNMSITNTPTSNDACLSIVHSLMCHRQGGESETFAKRAIESLVKKLKEKKDELDSLITAITTNGAHPSKCVTIQRTLDGRLQVAGRKGFPHVIYARLWRWPDLHKNELKHVKYCQYAFDLKCDSVCVNPYHYERVVSPGIDLSGLTLQSNAPSSMMVKDEYVHDFEGQPSLSTEGHSIQTIQHPPSNRASTETYSTPALLAPSESNATSTANFPNIPVASTSQPASILGGSHSEGLLQIASGPQPGQQQNGFTGQPATYHHNSTTTWTGSRTAPYTPNLPHHQNGHLQHHPPMPPHPGHYWPVHNELAFQPPISNHPAPEYWCSIAYFEMDVQVGETFKVPSSCPIVTVDGYVDPSGGDRFCLGQLSNVHRTEAIERARLHIGKGVQLECKGEGDVWVRCLSDHAVFVQSYYLDREAGRAPGDAVHKIYPSAYIKVFDLRQCHRQMQQQAATAQAAAAAQAAAVAGNIPGPGSVGGIAPAISLSAAAGIGVDDLRRLCILRMSFVKGWGPDYPRQSIKETPCWIEIHLHRALQLLDEVLHTMPIADPQPLD
partner: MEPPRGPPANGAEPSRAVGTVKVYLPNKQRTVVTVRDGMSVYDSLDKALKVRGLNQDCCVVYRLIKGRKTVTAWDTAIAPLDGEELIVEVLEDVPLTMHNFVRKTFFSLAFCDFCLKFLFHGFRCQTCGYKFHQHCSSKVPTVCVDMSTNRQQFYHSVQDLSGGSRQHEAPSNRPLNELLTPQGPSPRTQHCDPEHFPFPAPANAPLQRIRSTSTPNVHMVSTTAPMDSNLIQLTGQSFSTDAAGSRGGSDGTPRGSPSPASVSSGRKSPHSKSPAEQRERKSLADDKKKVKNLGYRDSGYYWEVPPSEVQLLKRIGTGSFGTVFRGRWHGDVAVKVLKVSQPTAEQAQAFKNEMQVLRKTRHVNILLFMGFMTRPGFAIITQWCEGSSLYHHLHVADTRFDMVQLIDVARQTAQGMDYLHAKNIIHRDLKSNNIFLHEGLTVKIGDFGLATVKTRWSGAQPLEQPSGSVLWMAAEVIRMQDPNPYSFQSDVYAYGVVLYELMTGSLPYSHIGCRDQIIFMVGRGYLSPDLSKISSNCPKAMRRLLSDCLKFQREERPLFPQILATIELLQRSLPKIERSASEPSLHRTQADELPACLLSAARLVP

Variants of: B1
Details: with araf_human ARAF

Row | Variant | effect of a mutation on the interaction
1 | G386D | with no effect

Variants of: B1
Details: with araf_human ARAF
Remark: another data set of the same source

Row | Variant | effect of a mutation on the interaction
2 | G386D | increasing interaction strength

Variants of: B1
Details: with araf_human ARAF
Remark: another data set of the same source

Row | Variant | effect of a mutation on the interaction
3 | R361H | with no effect

Variants of: B1
Details: with araf_human ARAF
Remark: another data set of the same source

Row | Variant | effect of a mutation on the interaction
4 | R361C | with no effect

Variants of: B1
Details: with araf_human ARAF
Remark: another data set of the same source

Row | Variant | effect of a mutation on the interaction
5 | D351H | with no effect

From IntAct's records for PubMed 35512704
